Patent US11180767B2, “Protease deficient filamentous fungal cells and methods of use thereof” (GLYKOS FINLAND OY, priority 2012, dated 2021)

Tested on: proteases in supernatant from the 6-fold protease deletion strain M400
Experiment: Protease stability of proteins spiked into supernatant of the 6-fold protease deletion strain
Assay type: biochemical, Trichoderma reesei
Conditions: M400 supernatant pH 4.2, 20 hours, 37°C, 0.05 μg/μl
Experimental: The protease stability of the model proteins IGF1, hGH, and IFNα2b were analyzed by spiking them into supernatant from the 6-fold protease deletion strain (Δpep1Δtsp1Δslp1Δgap1Δgap2Δpep4) M400. The supernatant was collected from a large shake flask culture CAH15. The undiluted supernatant from the shake flask cultivation CAH15 was incubated with the purified model proteins with and without pepstatin A (50 μM) and SBTI (0.2 mg/ml) inhibitors for 20 hours at 37° C. The 5 day culture supernatant pH was around 4.2. The reaction containing 0.05 μg μl of model protein was sampled after 20 hours. 50 mM sodium citrate pH 4.0 spiked with model proteins (0.05 g 1) was used as a buffer control.
From each reaction 10 μl was loaded into an 18% SDS PAGE gel and run for 30 minutes at 200 V. The proteins in the gel were then transferred to nitrocellulose for immunoblotting. The nitrocellulose membrane was blocked for 1 hour at room temperature with 5% milk in TBST buffer. The individual blots were probed with their specific primary antibody to detect the appropriate model protein for 1 hour at room temperature on a shaker. The mouse anti-IGF1 antibody (R&D systems #mab291) was used at 2 μg/ml diluted in TBST. The mouse anti-rhGH antibody (Abeam #ab51232) was used at 2 μg/ml diluted in TBST. The mouse anti-IFNα2b antibody (Abeam #ab9386) was used at 1 μg/ml diluted in TBST. After briefly washing the blot membranes with TBST, the secondary antibody was added for 1 hour at room temperature shaking. The secondary goat anti-mouse AP conjugated antibody (Biorad #170-6520) was diluted 1:10,000 in TBST.
This same spiking experiment as was done with MAB01 to investigate its stability in the 6 protease deletion supernatant with and without inhibitors (FIG. 43). Samples were taken as described above and immunoblotted with an anti-heavy chain AP conjugated antibody (Sigma #A3188). […] There was no obvious benefit having used inhibitors. The antibody was stable in this pH 4.2 supernatant. […]

IGF1: insulin-like growth factor 1, model protein
stability of model protein in supernatant without inhibitors: the majority appeared to be degraded

hGH: human growth hormone, model protein
stability of model protein in supernatant without inhibitors: the majority appeared to be degraded
